The values below are quoted from earlier work in paper PMC3042137.

The target of this series is JIP1 (L-pepJIP1) (Homo sapiens) (UniProt Q9UQF2). Briefly: ITC. For orientation: Isothermal titration calorimetry measures the heat released or taken up as one component is titrated into another.
Chain of UniProt Q9UQF2 (Q9UQF2 whole entry): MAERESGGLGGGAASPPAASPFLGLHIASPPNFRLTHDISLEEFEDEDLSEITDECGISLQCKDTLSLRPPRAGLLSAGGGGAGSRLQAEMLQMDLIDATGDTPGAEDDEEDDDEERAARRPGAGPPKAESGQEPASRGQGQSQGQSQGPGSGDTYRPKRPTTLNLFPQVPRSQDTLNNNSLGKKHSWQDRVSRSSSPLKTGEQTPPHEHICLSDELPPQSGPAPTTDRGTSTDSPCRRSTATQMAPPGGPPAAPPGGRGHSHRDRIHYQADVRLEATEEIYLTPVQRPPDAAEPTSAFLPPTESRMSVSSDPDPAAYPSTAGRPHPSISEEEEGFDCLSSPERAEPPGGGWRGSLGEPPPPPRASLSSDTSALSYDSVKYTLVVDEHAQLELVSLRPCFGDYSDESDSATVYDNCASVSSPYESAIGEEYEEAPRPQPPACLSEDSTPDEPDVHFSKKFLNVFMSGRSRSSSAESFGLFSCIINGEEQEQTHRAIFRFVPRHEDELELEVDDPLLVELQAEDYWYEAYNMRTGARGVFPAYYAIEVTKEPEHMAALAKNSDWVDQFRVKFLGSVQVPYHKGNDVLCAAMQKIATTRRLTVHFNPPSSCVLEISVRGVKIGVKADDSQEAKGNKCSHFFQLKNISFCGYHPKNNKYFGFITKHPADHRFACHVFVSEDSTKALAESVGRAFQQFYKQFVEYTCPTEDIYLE

What is called Kd is the constant that tells how readily two partners part at equilibrium. In the case of JNK1 (from UniProt P45983), the Kd is 420 nM.
